pKd: −log10 of the molar value.

In article PMC7486399 one finds Kd, bond lifetime τ and interaction time data, which are given here for one substance.

The test has as its target angiotensin-converting enzyme 2 (ACE2) protein, purified (UniProt Q9BYF1). As to the kind of experiment: AFM single-molecule force spectroscopy (FD-curve-based AFM).

Substance “SARS-CoV-2 spike glycoprotein receptor-binding domain (from UniProt P0DTC2 319-541) (domain or fragment)” gave a negative logarithm of the Kd (pKd) of 6.92, a bond lifetime τ of 111 ms and an interaction time of 0.25 ms.

As a reminder, the pKd is the negative decadic logarithm of the Kd, by convention in mol/L. A low value points to a large Kd.
